One substance from patent US20150290315A1 can be followed below.

For assay [1], the target named is nectin-1 stably expressed on B78-H1-C10 cells (UniProt Q15223). Put plainly: cell-based or functional assay.
Assay [2] concerns the target HVEM stably expressed on B78-H1-A10 cells (UniProt Q92956). Put plainly: cell-based or functional assay.
Sequence of UniProt Q92956 (Q92956 39-283 limits assumed): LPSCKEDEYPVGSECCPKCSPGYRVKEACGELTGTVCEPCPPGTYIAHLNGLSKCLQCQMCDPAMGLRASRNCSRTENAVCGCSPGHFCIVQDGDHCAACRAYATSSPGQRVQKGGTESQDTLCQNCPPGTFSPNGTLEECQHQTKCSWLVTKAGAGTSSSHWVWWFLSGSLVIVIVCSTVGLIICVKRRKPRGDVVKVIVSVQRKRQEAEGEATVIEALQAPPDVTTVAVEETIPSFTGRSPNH

Sequence of UniProt Q15223 (Q15223 31-517 limits assumed): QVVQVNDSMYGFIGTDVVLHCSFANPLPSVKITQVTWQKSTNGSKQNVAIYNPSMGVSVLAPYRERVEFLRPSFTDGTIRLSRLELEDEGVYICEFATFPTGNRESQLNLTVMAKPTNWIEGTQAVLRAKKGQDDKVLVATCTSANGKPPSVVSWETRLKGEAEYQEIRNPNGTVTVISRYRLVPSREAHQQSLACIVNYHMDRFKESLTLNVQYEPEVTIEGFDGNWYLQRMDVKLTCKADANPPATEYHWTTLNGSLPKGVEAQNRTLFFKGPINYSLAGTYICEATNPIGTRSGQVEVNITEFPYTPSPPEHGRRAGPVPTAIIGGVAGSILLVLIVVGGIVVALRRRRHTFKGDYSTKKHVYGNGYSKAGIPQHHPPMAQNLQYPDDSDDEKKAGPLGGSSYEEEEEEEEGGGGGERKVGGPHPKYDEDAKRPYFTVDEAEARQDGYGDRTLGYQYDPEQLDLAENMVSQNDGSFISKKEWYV

Consider “HSV-1 strain KOS glycoprotein D with the A3C mutation, as carried by the KOS-gDA3C virus (from UniProt A1Z0Q5 26-394)”, for which, in assay [1], the entry of virus into C10 cells (plaques counted after citrate wash) was found to be 70 % reduction. In assay [2], the entry of virus into A10 cells (plaques counted after citrate wash) was determined as 50 % reduction.
